From article PMC6630525 come the findings set out here.

Experiment [1] addresses full-length Arabidopsis thaliana NAP1-Related Protein 1 (AtNRP1-His) (Arabidopsis thaliana) (UniProt Q9CA59). The experiment can be described thus: native gel or EMSA; native polyacrylamide gel; increasing amounts of H2A-H2B dimer titrated into a constant amount (5 µM) of AtNRP1/2 proteins. On the technique in general: A gel shift assay detects complexes by their altered migration in electrophoresis.

The target of experiment [2] is full-length Arabidopsis thaliana NAP1-Related Protein 2 (AtNRP2-His) (Arabidopsis thaliana) (UniProt Q8LC68). The experiment is described as above.
The target in experiment [3] is full-length Arabidopsis thaliana NAP1-Related Protein 1 (AtNRP1-His) (Arabidopsis thaliana) (UniProt Q9CA59). The experiment is described as follows: ITC; H2A-H2B (200-210 µM) in the syringe, AtNRP1/AtNRP2 (20 µM) in the cell; 25 °C; 20 mM PIPES pH 7.4, 300 mM NaCl; sequential binding site model.
The target of experiment [4] is full-length Arabidopsis thaliana NAP1-Related Protein 2 (AtNRP2-His) (Arabidopsis thaliana) (UniProt Q8LC68). Described as above.

Chain of full-length Arabidopsis thaliana NAP1-Related Protein 2 (AtNRP2-His) (Arabidopsis thaliana) (Q8LC68 other isoform, or with tags, fused parts or gaps): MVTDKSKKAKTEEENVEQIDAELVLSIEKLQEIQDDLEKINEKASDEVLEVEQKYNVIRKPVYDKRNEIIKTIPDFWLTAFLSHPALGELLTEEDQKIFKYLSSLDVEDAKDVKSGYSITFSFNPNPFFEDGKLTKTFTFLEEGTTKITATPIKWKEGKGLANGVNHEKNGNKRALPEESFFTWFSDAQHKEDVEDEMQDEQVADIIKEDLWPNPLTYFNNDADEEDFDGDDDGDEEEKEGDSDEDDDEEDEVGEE
Chain of full-length Arabidopsis thaliana NAP1-Related Protein 1 (AtNRP1-His) (Arabidopsis thaliana) (Q9CA59 whole entry): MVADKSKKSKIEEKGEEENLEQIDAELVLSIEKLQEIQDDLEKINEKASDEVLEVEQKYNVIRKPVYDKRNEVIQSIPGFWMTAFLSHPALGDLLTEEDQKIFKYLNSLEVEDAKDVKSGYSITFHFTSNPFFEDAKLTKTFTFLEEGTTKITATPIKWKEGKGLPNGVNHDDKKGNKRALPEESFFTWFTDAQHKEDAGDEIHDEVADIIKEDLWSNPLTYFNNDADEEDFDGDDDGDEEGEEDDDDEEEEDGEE
Chain of Arabidopsis thaliana histone H2A-H2B dimer (Q9LD28 whole entry): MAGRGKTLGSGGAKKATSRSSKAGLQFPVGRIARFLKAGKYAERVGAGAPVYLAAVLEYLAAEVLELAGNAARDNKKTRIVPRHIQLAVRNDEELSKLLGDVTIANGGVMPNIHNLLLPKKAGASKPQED
Chain of Arabidopsis thaliana histone H2A-H2B dimer (Q9LQQ4 whole entry): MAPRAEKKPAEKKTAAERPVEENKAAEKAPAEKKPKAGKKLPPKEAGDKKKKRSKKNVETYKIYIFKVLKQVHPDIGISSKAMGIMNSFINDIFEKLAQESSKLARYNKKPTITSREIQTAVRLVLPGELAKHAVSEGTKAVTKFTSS

“Arabidopsis thaliana histone H2A-H2B dimer (from UniProt Q9LD28 1-130; Q9LQQ4 1-148) (complex)” yielded a stoichiometry N (H2A-H2B dimers per NRP dimer) in experiment [1] of 2. The same substance displayed a stoichiometry N (H2A-H2B dimers per NRP dimer) in experiment [2] of 2. In experiment [3], the Kd1 (sequential binding model, first site) came to 130 nM; the Kd2 (sequential binding model, second site) worked out at 2.4 µM; the dH1 (sequential binding model, first site) amounted to 8.51 kcal/mol; the dH2 (sequential binding model, second site) was 6 kcal/mol. Also, in experiment [4], the Kd1 (sequential binding model, first site) is 39.6 nM; the Kd2 (sequential binding model, second site) worked out at 1 µM; the dH1 (sequential binding model, first site) came to 7.28 kcal/mol; the dH2 (sequential binding model, second site) was 1.33 kcal/mol.
